# Test results reported in patent US20240269196A1, “RESPIRATORY TREATMENTS USING SALMONID OIL COMPOSITIONS” (Hofseth Biocare ASA, priority 2020, published 2024).
# B1: Apolipoprotein A-IV (protein, UniProt P06727 21-396, looked up)
# Apolipoprotein A-IV: EVSADQVATVMWDYFSQLSNNAKEAVEHLQKSELTQQLNALFQDKLGEVNTYAGDLQKKLVPFATELHERLAKDSEKLKEEIGKELEELRARLLPHANEVSQKIGDNLRELQQRLEPYADQLRTQVSTQAEQLRRQLTPYAQRMERVLRENADSLQASLRPHADELKAKIDQNVEELKGRLTPYADEFKVKIDQTVEELRRSLAPYAQDTQEKLNHQLEGLTFQMKKNAEELKARISASAEELRQRLAPLAEDVRGNLRGNTEGLQKSLAELGGHLDQQVEEFRRRVEPYGENFNKALVQQMEQLRQKLGPHAGDVEGHLSFLEKDLRDKVNSFFSTFKEKESQDKTLSLPELEQQQEQQQEQQQEQVQMLAPLES
# notes: positive control protein
# Experiments:
# [1] = test system: eosinophils in healthy donor PMNL samples; assay: Shape change assay: CCL11-stimulated eosinophil shape change in PMNL, flow cytometry (FSC); format: cell-based, human; conditions: Example 1, 3 μg/mL ApoA-IV pretreatment 30 min
# Protocol: (§1) PMNL samples were pretreated with 3 μg/mL ApoA-IV (positive control), 100 μg/mL SO, and formulation vehicle (negative control) for 30 minutes and stimulated with serial dilutions of CCL11 for 20 minutes at 37° C. Shape change was monitored by flow cytometry as the increase of forward scatter (FSC) and was expressed as percent of the vehicle response. Note, eosinophils are distinguishable from neutrophils by their SSC properties and autofluorescence.
# (§2) The chemotactic factor, CCL11, was used to prime eosinophils to immediately prepare for diapedesis through the endothelium by rearranging their cytoskeleton. This morphological change was detected by flow cytometry as an increase in the forward scatter properties of these cells. The effects of SO at 100 μg/mL was studied and compared to the known effect of 3 μg/mL ApoA-IV on eosinophil shape change in healthy donor PMNL samples. The pretreated samples were stimulated with serial dilutions of CCL11, and shape change was monitored by flow cytometry.
# as §1, with “with” for “with 3 μg/mL ApoA-IV (positive control),”, “SO, heat, acid and base treated SO, krill oil, standard 18/12 fish oil,” for “SO,”, “Eosinophils were” for “Note, eosinophils are”, “auto-fluorescence.” for “autofluorescence.”
# as §2, with “various processing treatments on SO, krill oil and standard 18/12 fish oil” for “known effect of 3 μg/mL ApoA-IV”
# [2] = test system: CD11b on eosinophils (PMNL surface); assay: CD11b (integrin) upregulation assay, CCL11-stimulated PMNL, flow cytometry; format: cell-based, human; conditions: Example 1, 3 μg/mL ApoA-IV pretreatment 30 min
# Protocol: (§3) PMNL samples were pretreated with 3 μg/mL ApoA-IV (positive control), 100 μg/mL SO, and formulation vehicle (negative control) for 30 minutes and incubated with serial dilutions of CCL11 for 30 minutes at 37° C. Samples were stained with anti-CD16-PE-Cy5 and anti-CD11b-PE (ICRF44) antibodies. Eosinophils were identified as CD16 negative cells. CD11b upregulation was analyzed by flow cytometry.
# A precondition for eosinophil migration is upregulation of adhesion molecules such as the αmβ2 integrins (CD11b/CD18).
# as §3, with “with” for “with 3 μg/mL ApoA-IV (positive control),”, “SO, heat, acid and base treated SO, krill oil, standard 18/12 fish oil,” for “SO,”
# [3] = test system: House Dust Mite (HDM) extract-induced murine asthma model; assay: House Dust Mite (HDM) extract-induced murine asthma model: BAL fluid and spleen cellularity; format: in vivo, mice; conditions: 5 μg/animal, day 7 to day 14, N=5; for Percent eosinophil in spleen tissue (Mean): spleen on day 15
# Protocol: For this purpose, normal saline (NS) was used as a vehicle control and Apolipoprotein A-IV (ApoA-IV) was used as a positive control, respectively. The study involved induction of asthmatic condition in mice using HDM extract and simultaneous evaluation of the effects of OmeGo Salmon oil (CARDIO softgels; 20 or 60 μg/animal) and ApoA-IV (5 μg/animal; as a positive control) on cosinophil modulation in mice.
# On day 1, all 20 mice were anesthetized and sensitized intranasally with 1 μg HDM protein in 40 μL PBS. From day 7 to day 11, all 20 mice were challenged by daily intranasal application of 10 μg HDM protein in 40 μL PBS. Mice were randomly divided into four groups with five mice in each group for differential treatment from day 7 to day 14. From day 7 to day 14, each animal in the first group (G1) received 100 μL NS; each animal in the second group (G2) received 20 μg CARDIO in 100 μL NS; each animal in the third group (G3) received 60 μg CARDIO in 100 μL NS; and each animal in the fourth group (G4) received 5 μg ApoA-IV in 100 μL NS.
# The Broncho-Alveolar Lavage (BAL) fluid and spleen were collected from all 20 mice on day 15, and cellularity of the collected samples were analyzed by flow cytometry.
# [4] = test system: allergic human eosinophils; assay: Apoptosis assay (Annexin V-FITC, flow cytometry); format: cell-based; conditions: Example 1; 3 μg/mL ApoA-IV; 18 hr incubation; IL-5 50 pM
# Protocol: (§4) The allergic human eosinophils were placed in RPMI 1640 medium supplemented with IL-5 (50 pM), 1% FBS and PenStrep in the presence of 3 μg/mL ApoA-IV (positive control), 100 μg/mL SO, and formulation vehicle (negative control). Aliquots were removed after 18 hr incubation, washed twice in PBS, and resuspended in binding buffer. The eosinophil cells were stained using the Annexin V-FITC Apoptosis Detection Kit I, (Sigma Aldrich) and immediately analyzed by flow cytometry. Each sample was acquired for 1 min, and the total number of eosinophils gated on a forward scatter/side scatter plot and the percentage of live cells (annexin Vneg) and apoptotic cells (annexin Vpos) was recorded.
# as §4, with “of” for “of 3 μg/mL ApoA-IV (positive control),”, “SO, heat, acid and base treated SO, krill oil, standard 18/12 fish oil,” for “SO,”, “Aliquots were removed after 18 hr incubation, washed twice in PBS, and resuspended in binding buffer.” left out, “recorded. […]” for “recorded.”
molecule,measurement,setting,value
B1,Shape change (100% as baseline) of PMNL,[1]; CCL11 0.05 nM,100%
same,Shape change (100% as baseline) of PMNL,[1]; CCL11 0.10 nM,103%
same,Shape change (100% as baseline) of PMNL,[1]; CCL11 0.25 nM,105%
same,Shape change (100% as baseline) of PMNL,[1]; CCL11 0.50 nM,106%
same,Shape change (100% as baseline) of PMNL,[1]; CCL11 0.75 nM,108%
same,Shape change (100% as baseline) of PMNL,[1]; CCL11 1.00 nM,109%
same,Shape change (100% as baseline) of PMNL,[1]; CCL11 2.50 nM,109%
same,Shape change (100% as baseline) of PMNL,[1]; CCL11 5.00 nM,107%
same,CB11b change (100% as baseline) on PMNL surface,[2]; CCL11 0.01 nM,95%
same,CB11b change (100% as baseline) on PMNL surface,[2]; CCL11 0.50 nM,103%
same,CB11b change (100% as baseline) on PMNL surface,[2]; CCL11 1.00 nM,122%
same,CB11b change (100% as baseline) on PMNL surface,[2]; CCL11 2.50 nM,125%
same,CB11b change (100% as baseline) on PMNL surface,[2]; CCL11 5.00 nM,125%
same,CB11b change (100% as baseline) on PMNL surface,[2]; CCL11 10.00 nM,114%
same,Cell count in BAL fluid: Eosinophil count (Mean),[3]; BAL on day 15,28220
same,Percent eosinophil in spleen tissue (Mean),[3],2.34%
same,Percent eosinophil in spleen tissue (Mean),[3]; listed as ApoA-IV,significantly decreased
same,percentage of apoptotic cells (annexin Vpos),[4],60±3.8%
same,percentage of live cells (annexin Vneg),[4],31.5±2.3%
